In patent publication US20040018971A1 (published 2004):
Where no end group is shown, it is not given here. [ ]: non-standard residue; d: D form. Abu = CC[C@H](N)C(=O)O

B1: Her2/neu.218.B3B7K9 (peptide)
peptide: TV[Abu]AGG[Abu]AK
notes: synthetic analog peptide; also called TVBAGGBAK
B2: HER2/neu peptide, position 883, 9 amino acids (peptide)
peptide: KVPIKWMAL
notes: Synthetic peptide; also called KVPIKWMAL
B3: HER2/neu peptide, position 293, 9 amino acids (peptide)
peptide: ASCVTACPY
notes: Synthetic peptide; also called Her2/neu.293

How the values were obtained:
[1] = target: HLA-B*5301 (human); test: competition with 125I probe peptide, purified HLA
[2] = target: HLA-B*5101 (human); test: competition with 125I probe peptide, purified HLA
[3] = target: HLA-B*0702 (human); test: competition with 125I probe peptide, purified HLA
[4] = target: T1, HLA-A*0301 (human); test: competition with 125I-labelled probe peptide on purified HLA-A*0301, gel filtration; ratio to standard peptide 941.12
T1 construct: Purified HLA molecule, 5 to 500 nM in the assay; also called HLA-A3

[5] = target: T2, HLA-A*0101 (human); test: competition with 125I-labelled probe peptide for purified HLA-A*0101, gel filtration; ratio = IC50 of standard peptide 944.02 / IC50 of test peptide
T2 construct: also called HLA-A1

[6] = target: T3, HLA-A*0101 (human); test: competition with 125I-labelled probe peptide for purified HLA-A*0101, gel filtration
T3 construct: also called HLA-A1

[7] = target: T4, HLA-A*0201 (human); test: competition with 125I-labelled probe peptide for purified HLA-A*0201, gel filtration
T4 construct: Purified HLA class I molecule (MHC, no peptide specified); also called HLA-A2.1

[8] = target: HLA-A*0301 (human); test: inhibition of 125I probe peptide binding to purified HLA
[9] = target: HLA-A*6801 (human); test: as above
[10] = target: HLA-A*1101 (human); test: as above
[11] = target: HLA-A*3101 (human); test: as above

| Binder | relative binding ratio [6] | relative binding ratio [7] | also measured |
| --- | --- | --- | --- |
| CPSGVKPDLSI (analog peptide) [Her2/neu.600.I11] | – | – | IC50 [1]: 344 nM; IC50 [2]: 138 nM; IC50 [3]: 290 nM |
| VLIAHNQVR [HER2/neu peptide, position 84, 9 amino acids] | – | – | relative binding ratio (IC50 of standard peptide / IC50 of test peptide) [4]: 0.0033 relative binding ratio |
| GSGAFGTVY [HER2/neu peptide, position 727, 9 amino acids, listing 1 of 2 here] | – | – | relative binding ratio [5]: 0.0011 ratio |
| TVPWDQLFR [HER2/neu peptide, position 479, 9 amino acids] | – | – | relative binding ratio (IC50 of standard peptide / IC50 of test peptide) [4]: 0.0006 relative binding ratio |
| SMPNPEGRY [HER2/neu peptide, position 281, 9 amino acids, listing 1 of 2 here] | – | – | relative binding ratio [5]: 0.0028 ratio |
| SMPNPEGRY [HER2/neu peptide, position 281, 9 amino acids, listing 2 of 2 here] | 0.0028 ratio (IC50 of standard peptide / IC50 of test peptide) | – | – |
| LLLALLPPGA (Synthetic peptide) [HER2/neu peptide, position 11, 10 amino acids] | – | 0.0054 ratio (IC50 of standard peptide / IC50 of test peptide) | – |
| KITDFGLARL (Synthetic peptide) [HER2/neu peptide, position 860, 10 amino acids] | – | 0.002 ratio (IC50 of standard peptide / IC50 of test peptide) | – |
| TLEEITGYLY (also called Her2/neu.402) [HER2/neu peptide, position 402, 10 amino acids] | 1.1 ratio (IC50 of standard peptide / IC50 of test peptide) | – | – |
| IVWLGLRSLK (synthetic analog peptide) [Her2/neu.450.V2K10] | – | – | IC50 [8]: 3.9 nM; IC50 [9]: 12 nM; IC50 [10]: 128 nM |
| RLLDIDETEY [HER2/neu peptide, position 868, 10 amino acids] | 1.3 ratio (IC50 of standard peptide / IC50 of test peptide) | – | – |
| LMTFGAKPY [HER2/neu peptide, position 915, 9 amino acids, listing 1 of 2 here] | – | – | relative binding ratio [5]: 0.0011 ratio |
| ELMTFGAKPY [HER2/neu peptide, position 914, 10 amino acids] | 0.0082 ratio (IC50 of standard peptide / IC50 of test peptide) | – | – |
| LLPPGAAST (Synthetic peptide) [HER2/neu peptide, position 15, 9 amino acids] | – | 0.0007 ratio (IC50 of standard peptide / IC50 of test peptide) | – |
| LLALLPPGA (Synthetic peptide) [HER2/neu peptide, position 12, 9 amino acids] | – | 0.0008 ratio (IC50 of standard peptide / IC50 of test peptide) | – |
| LIQRNPQLCY [HER2/neu peptide, position 154, 10 amino acids, listing 1 of 2 here] | 0.03 ratio (IC50 of standard peptide / IC50 of test peptide) | – | – |
| B1 | – | – | IC50 [8]: 24 nM; IC50 [9]: 7.3 nM; IC50 [10]: 29 nM |
| LLNWCMQIA (Synthetic peptide) [HER2/neu peptide, position 822, 9 amino acids] | – | 0.0046 ratio (IC50 of standard peptide / IC50 of test peptide) | – |
| LIQRNPQLCY [HER2/neu peptide, position 154, 10 amino acids, listing 2 of 2 here] | – | – | relative binding ratio [5]: 0.03 ratio |
| CVTACPYNY [HER2/neu peptide, position 295, 9 amino acids] | 0.0042 ratio (IC50 of standard peptide / IC50 of test peptide) | – | – |
| FSPAFDNLY [HER2/neu peptide, position 1213, 9 amino acids, listing 1 of 2 here] | – | – | relative binding ratio [5]: 0.043 ratio |
| LLEDDDMGDL (Synthetic peptide) [HER2/neu peptide, position 1008, 10 amino acids] | – | 0.0001 ratio (IC50 of standard peptide / IC50 of test peptide) | – |
| PLPSETDGY [HER2/neu peptide, position 1119, 9 amino acids] | 0.0017 ratio (IC50 of standard peptide / IC50 of test peptide) | – | – |
| LAVLDNGDPL (Synthetic peptide) [HER2/neu peptide, position 114, 10 amino acids] | – | 0.0002 ratio (IC50 of standard peptide / IC50 of test peptide) | – |
| RVLQGLPREY [HER2/neu peptide, position 545, 10 amino acids] | 0.0015 ratio (IC50 of standard peptide / IC50 of test peptide) | – | – |
| LIAHNQVRQV (Synthetic peptide) [HER2/neu peptide, position 85, 10 amino acids] | – | 0.0001 ratio (IC50 of standard peptide / IC50 of test peptide) | – |

| Binder | relative binding ratio [6] | relative binding ratio [7] | also measured |
| --- | --- | --- | --- |
| ILKETELRKV (Synthetic peptide) [HER2/neu peptide, position 714, 10 amino acids] | – | 0.0001 ratio (IC50 of standard peptide / IC50 of test peptide) | – |
| ILLVVVLGV (Synthetic peptide) [HER2/neu peptide, position 661, 9 amino acids] | – | 0.002 ratio (IC50 of standard peptide / IC50 of test peptide) | – |
| KIPVAIKVL (Synthetic peptide) [HER2/neu peptide, position 747, 9 amino acids] | – | 0.0002 ratio (IC50 of standard peptide / IC50 of test peptide) | – |
| VARCPSGVK [HER2/neu peptide, position 597, 9 amino acids] | – | – | relative binding ratio (IC50 of standard peptide / IC50 of test peptide) [4]: 0.01 relative binding ratio |
| ASPLDSTFY [HER2/neu peptide, position 997, 9 amino acids, listing 1 of 2 here] | – | – | relative binding ratio [5]: 0.029 ratio |
| VLQGLPREY [HER2/neu peptide, position 546, 9 amino acids] | – | – | relative binding ratio (IC50 of standard peptide / IC50 of test peptide) [4]: 0.0012 relative binding ratio |
| LAALCRWGLL (Synthetic peptide) [HER2/neu peptide, position 3, 10 amino acids] | – | 0.0022 ratio (IC50 of standard peptide / IC50 of test peptide) | – |
| VLVKSPNHVK [HER2/neu peptide, position 851, 10 amino acids] | – | – | relative binding ratio (IC50 of standard peptide / IC50 of test peptide) [4]: 0.082 relative binding ratio |
| IVKGGVLIQR (synthetic analog peptide) [Her2/neu.148.V2] | – | – | IC50 [8]: 275 nM; IC50 [9]: 29 nM; IC50 [10]: 7500 nM; IC50 [11]: 72 nM |
| B2 | – | 0.0002 ratio (IC50 of standard peptide / IC50 of test peptide) | – |
| B3 | – | – | relative binding ratio [5]: 0.055 ratio |
| ELHCPALVTY [HER2/neu peptide, position 265, 10 amino acids, listing 1 of 2 here] | 0.0015 ratio (IC50 of standard peptide / IC50 of test peptide) | – | – |
| KIRKYTMRRL (Synthetic peptide) [HER2/neu peptide, position 681, 10 amino acids] | – | 0.0001 ratio (IC50 of standard peptide / IC50 of test peptide) | – |
| PLTCSPQPEY [HER2/neu peptide, position 1130, 10 amino acids] | 0.0072 ratio (IC50 of standard peptide / IC50 of test peptide) | – | – |
| VVQGNLELTY [HER2/neu peptide, position 55, 10 amino acids] | 0.018 ratio (IC50 of standard peptide / IC50 of test peptide) | – | – |
| LLALLPPGAA (Synthetic peptide) [HER2/neu peptide, position 12, 10 amino acids] | – | 0.0006 ratio (IC50 of standard peptide / IC50 of test peptide) | – |
| ELHCPALVTY [HER2/neu peptide, position 265, 10 amino acids, listing 2 of 2 here] | – | – | relative binding ratio [5]: 0.0015 ratio |
| LLVVVLGVV (Synthetic peptide) [HER2/neu peptide, position 662, 9 amino acids] | – | 0.0001 ratio (IC50 of standard peptide / IC50 of test peptide) | – |
| LMTFGAKPY [HER2/neu peptide, position 915, 9 amino acids, listing 2 of 2 here] | 0.0011 ratio (IC50 of standard peptide / IC50 of test peptide) | – | – |
| ASPLDSTFY [HER2/neu peptide, position 997, 9 amino acids, listing 2 of 2 here] | 0.029 ratio (IC50 of standard peptide / IC50 of test peptide) | – | – |
| GSGAFGTVY [HER2/neu peptide, position 727, 9 amino acids, listing 2 of 2 here] | 0.0011 ratio (IC50 of standard peptide / IC50 of test peptide) | – | – |
| ASCVTACPY (also called Her2/neu.293) | 0.055 ratio (IC50 of standard peptide / IC50 of test peptide) | – | – |
| TVCAGGCAR (synthetic peptide) [Her2/neu.218] | – | – | IC50 [9]: 83 nM; IC50 [10]: 261 nM |
| LLGICLTSTV (Synthetic peptide) [HER2/neu peptide, position 785, 10 amino acids] | – | 0.049 ratio (IC50 of standard peptide / IC50 of test peptide) | – |
| YVMAGVGSPY [HER2/neu peptide, position 772, 10 amino acids] | 1.1 ratio (IC50 of standard peptide / IC50 of test peptide) | – | – |
| FSPAFDNLY [HER2/neu peptide, position 1213, 9 amino acids, listing 2 of 2 here] | 0.043 ratio (IC50 of standard peptide / IC50 of test peptide) | – | – |
